Source: patent EP4613859A1, “TLR SIGNALING INHIBITORY PEPTIDE AND COMPOSITION INCLUDING SAME FOR PREVENTION OR TREATMENT OF INFLAMMATORY DISEASES” (Korea Institute of Science and Technology, priority 2022, dated 2025)
One block for each molecule: values may come before it.

Legend:
human MAL = assay: Phage display screening of TIR domain-derived peptide library against immobilized MAL, NGS analysis after four rounds; type: binding; settings: for NGS count: phages remaining after fourth round
Description: (§1) First, vector cloning was performed by synthesizing a DNA sequence for expressing each peptide belonging to the library constructed in Example 1. Vector cloning was performed using p3/p8 phagemids.
(§2) After the fourth round, the remaining phages were obtained by binding to the finally immobilized target proteins, and peptide sequences binding to the target and the relative distribution of each sequence were confirmed by performing NGS analysis on phagemids in the phages.

human MYD88 = assay: Phage display screening of TIR domain-derived peptide library against immobilized MyD88, NGS analysis after four rounds; type: binding; settings: for NGS count: phages remaining after fourth round
Description: as §1, §2

human MyD88 (human) [1] = molecular target: human MyD88 (human) (UniProt Q99836); assay: P8 phage display panning on plate-immobilised MyD88, after round 4, NGS
human MAL (human) = human MAL (human) (UniProt P58753); assay: P3 phage display panning on plate-immobilised MAL, after round 4, NGS
human MyD88 (human) [2] = molecular target: human MyD88 (human) (UniProt Q99836); assay: P3 phage display panning on plate-immobilised MyD88, after round 4, NGS
[3] = P3_MAL: library displayed on P3 coat protein
[4] = P3_MAL: relative distribution of the sequence in NGS
[5] = P3_MyD88: library displayed on P3 coat protein
[6] = P3_MyD88: relative distribution of the sequence in NGS
[7] = P8_MAL: library displayed on P8 coat protein
[8] = P8_MAL: relative distribution of the sequence in NGS

Sequence of UniProt Q99836 (Q99836 155-296 limits assumed): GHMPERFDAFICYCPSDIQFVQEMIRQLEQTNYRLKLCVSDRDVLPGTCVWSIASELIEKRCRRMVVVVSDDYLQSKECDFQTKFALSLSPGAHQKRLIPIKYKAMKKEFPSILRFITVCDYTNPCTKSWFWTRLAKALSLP
Sequence of UniProt P58753 (P58753 79-221 limits assumed): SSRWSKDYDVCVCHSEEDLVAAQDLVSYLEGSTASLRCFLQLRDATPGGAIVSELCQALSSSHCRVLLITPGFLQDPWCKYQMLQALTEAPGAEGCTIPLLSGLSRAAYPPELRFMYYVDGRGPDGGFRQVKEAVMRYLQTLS

Molecule: EWIREQLRPALKERLP
NGS count (human MAL; [3]): 2354
Population (human MAL; [4]): 0.88%
NGS count (human MYD88; [5]): 16821
Population (human MYD88; [6]): 4.90%

Molecule: YNFISHLYDALHRNRI
NGS count (human MAL; [3]): 2678
Population (human MAL; [4]): 1.01%
NGS count (human MYD88; [5]): 2891
Population (human MYD88; [6]): 0.84%

Molecule: NELVHVWSSKANSLVG
NGS count (human MAL; [3]): 1836
Population (human MAL; [4]): 0.69%
NGS count (human MYD88; [5]): 8816
Population (human MYD88; [6]): 2.57%

Molecule: YLKWGYPWFWDRLRFA
NGS count (human MAL; [3]): 1680
Population (human MAL; [4]): 0.63%
NGS count (human MAL; [7]): 517
NGS count (human MYD88; [5]): 7321
Population (human MYD88; [6]): 2.13%

Molecule: KEVEGWRDALTKVASL
NGS count (human MAL; [3]): 3758
Population (human MAL; [4]): 1.41%
NGS count (human MYD88; [5]): 5187
Population (human MYD88; [6]): 1.80%

Molecule: SSFREGLWRLLELSKK
NGS count (human MAL; [3]): 29955
Population (human MAL; [4]): 11.26%
NGS count (human MYD88; [5]): 79510
Population (human MYD88; [6]): 23.15%

Molecule: DTKLKKGESIAPELLR
NGS count (human MAL; [7]): 5617
Population (human MAL; [8]): 1.74%
NGS count (human MYD88; [5]): 2465
Population (human MYD88; [6]): 0.72%

Molecule: QLIQQWIELHLHQLHL
NGS count (human MAL; [7]): 9394
Population (human MAL; [8]): 2.90%
NGS count (human MYD88; P8_MyD88: library displayed on P8 coat protein): 1605
Population (human MYD88; P8_MyD88: relative distribution of the sequence in NGS): 0.62%

Molecule: GFLYQAFAREGFKIFM
NGS count (human MAL; [3]): 1764
Population (human MAL; [4]): 0.66%
NGS count (human MYD88; [5]): 2579
Population (human MYD88; [6]): 0.75%

Molecule: KNLFNELVSKNIRTFM
NGS count (human MAL; [3]): 3259
Population (human MAL; [4]): 1.22%
NGS count (human MYD88; [5]): 8543
Population (human MYD88; [6]): 2.49%

Molecule: DWVWDYLLPNLEGPAG
NGS count (human MyD88 (human) [1]): 19400 count
Population (human MyD88 (human) [1]): 7.47%

Molecule: SFFWNKLRYHLPAPQH
NGS count (human MAL (human)): 2300 count
Population (human MAL (human)): 0.86%

Molecule: LEANDSLFWDRLLYSL
NGS count (human MyD88 (human) [1]): 1460 count
Population (human MyD88 (human) [1]): 0.56%

Molecule: YASSSWALDELLRILY
NGS count (human MyD88 (human) [1]): 2330 count
Population (human MyD88 (human) [1]): 0.9%

Molecule: YTALTNSGFHTFRDND
NGS count (human MyD88 (human) [2]): 17600 count
Population (human MyD88 (human) [2]): 5.12%

Molecule: YASYDDNDYYWVTHVLLRHL
NGS count (human MyD88 (human) [1]): 5890 count
Population (human MyD88 (human) [1]): 2.66%

Molecule: DSLFWDRLLYSLHVTE
NGS count (human MyD88 (human) [1]): 7590 count
Population (human MyD88 (human) [1]): 2.92%

Molecule: SPQEQDGFWVRLIEAL
NGS count (human MyD88 (human) [1]): 1840 count
Population (human MyD88 (human) [1]): 0.71%

Molecule: RGFLSHLRHHLQAKDH
NGS count (human MAL (human)): 15100 count
Population (human MAL (human)): 5.66%

Molecule: SENYATSPWALDELVL
NGS count (human MyD88 (human) [2]): 5490 count
Population (human MyD88 (human) [2]): 1.89%

Molecule: AVDKETDKIQTPLKNA
NGS count (human MyD88 (human) [2]): 4790 count
Population (human MyD88 (human) [2]): 1.39%

Molecule: DPQDLDWFYERLVSLL
NGS count (human MyD88 (human) [1]): 13100 count
Population (human MyD88 (human) [1]): 5.06%

Molecule: WDFASNMEQFWDRLYY
NGS count (human MyD88 (human) [1]): 7350 count
Population (human MyD88 (human) [1]): 2.83%

Molecule: VEPTQVRKQSGAVENA
NGS count (human MAL (human)): 2280 count
Population (human MAL (human)): 0.86%

Molecule: HQAFWNRLWAKLKPPT
NGS count (human MAL (human)): 1930 count
Population (human MAL (human)): 0.73%

Molecule: PNLRTKVLNYLMRTKT
NGS count (human MAL (human)): 26900 count
Population (human MAL (human)): 10.1%

Molecule: DYASSTWWLRELLQIA
NGS count (human MyD88 (human) [1]): 4110 count
Population (human MyD88 (human) [1]): 1.58%

Molecule: GLSWGPYEWWMGLYDA
NGS count (human MyD88 (human) [1]): 1960 count
Population (human MyD88 (human) [1]): 0.76%

Molecule: FLSYRALEKRFGPIGQ
NGS count (human MyD88 (human) [2]): 3290 count
Population (human MyD88 (human) [2]): 0.96%

Molecule: MFGGDTFHDFLDLISM
NGS count (human MyD88 (human) [1]): 1490 count
Population (human MyD88 (human) [1]): 0.57%

Further lines, results first:

NGS count (human MyD88 (human) [1]): 5340 count
Population (human MyD88 (human) [1]): 2.06%
Molecule: SAAYDDFWDRLIRMIE

NGS count (human MyD88 (human) [1]): 7160 count
Population (human MyD88 (human) [1]): 2.76%
Molecule: YLLLSVFQTIFARRTE

NGS count (human MyD88 (human) [1]): 10500 count
Population (human MyD88 (human) [1]): 4.05%
Molecule: WALDELLKILYANETM

NGS count (human MyD88 (human) [1]): 4900 count
Population (human MyD88 (human) [1]): 1.89%
Molecule: VQWDDPWFWDKLAYAM

NGS count (human MyD88 (human) [2]): 4870 count
Population (human MyD88 (human) [2]): 1.42%
Molecule: SELRVVDDGSVSPLEM

NGS count (human MyD88 (human) [1]): 3420 count
Population (human MyD88 (human) [1]): 1.32%
Molecule: HWIDWEYFVGIEDHIK

NGS count (human MAL (human)): 2280 count
Population (human MAL (human)): 0.86%
Molecule: LQNQWKLALTKVANLV

NGS count (human MyD88 (human) [1]): 5730 count
Population (human MyD88 (human) [1]): 2.21%
Molecule: DPQDLQWFYERLVSLI

NGS count (human MAL (human)): 2860 count
Population (human MAL (human)): 1.07%
Molecule: FLNFRGLDVRNYFLGH

NGS count (human MyD88 (human) [1]): 4070 count
Population (human MyD88 (human) [1]): 1.57%
Molecule: YLRADDSWFWEKLLYA

NGS count (human MyD88 (human) [1]): 25200 count
Population (human MyD88 (human) [1]): 9.72%
Molecule: LGYHWIDWEYFVGIED

NGS count (human MyD88 (human) [1]): 10600 count
Population (human MyD88 (human) [1]): 4.07%
Molecule: PQDLEWFYERLVSLIL

NGS count (human MAL (human)): 4430 count
Population (human MAL (human)): 1.66%
Molecule: KMQKWKDALYEAANLS

NGS count (human MyD88 (human) [1]): 54800 count
Population (human MyD88 (human) [1]): 21.1%
Molecule: DPQDLDWFYERLVSLF

NGS count (human MAL (human)): 3060 count
Population (human MAL (human)): 1.15%
Molecule: HHKGSYGEALAEHEKR

NGS count (human MAL (human)): 14900 count
Population (human MAL (human)): 5.61%
Molecule: RLLKWKEALHQFHSWV

NGS count (human MyD88 (human) [1]): 3430 count
Population (human MyD88 (human) [1]): 1.32%
Molecule: YAASPWWFDELVKIVG

NGS count (human MyD88 (human) [1]): 14400 count
Population (human MyD88 (human) [1]): 5.55%
Molecule: WALDELLQILHARELF

NGS count (human MyD88 (human) [1]): 2030 count
Population (human MyD88 (human) [1]): 0.78%
Molecule: VANILGYHWIDWEYFV

NGS count (human MAL (human)): 2800 count
Population (human MAL (human)): 1.05%
Molecule: KWFWDKLIYALSRNPH

NGS count (human MyD88 (human) [1]): 1540 count
Population (human MyD88 (human) [1]): 0.59%
Molecule: DWVWEHFFPMEEKDQT

NGS count (human MAL (human)): 4580 count
Population (human MAL (human)): 1.72%
Molecule: DWFLSKLSQHILKREK

NGS count (human MyD88 (human) [1]): 3060 count
Population (human MyD88 (human) [1]): 1.18%
Molecule: IDDDHLTYLVRLLLSR

NGS count (human MyD88 (human) [1]): 4490 count
Population (human MyD88 (human) [1]): 1.73%
Molecule: DPQDLEWFYERLFSQM

NGS count (human MAL (human)): 3570 count
Population (human MAL (human)): 1.34%
Molecule: SLRKNLVSNLIEEFKR

NGS count (human MyD88 (human) [2]): 4230 count
Population (human MyD88 (human) [2]): 1.23%
Molecule: NGHESEIIKEIVDTIV
